Experimental data reported in patent US20220016245A1, “CONJUGATE OF BIOTIN-MODIFIED DIMER AND PHTHALOCYANINE DYE” (The University of Tokyo, priority 2018, published 2022).
One block for each molecule: values may come before it.

Assays:
[1] = target: T1, Recombinant Human CEACAM-5/CD66e Protein, CF (R & D SYSTEMS) (human, UniProt P06731 35-685); assay: SPR, Biacore T200; CEACAM5 immobilized by amine coupling (279 RU), CEA-V2122 as analyte, single-cycle kinetics, bivalent analysis fit (KD = kd1/ka1)
T1 construct: Bought protein, immobilized on the sensor chip by amine coupling
T1 sequence (looked up): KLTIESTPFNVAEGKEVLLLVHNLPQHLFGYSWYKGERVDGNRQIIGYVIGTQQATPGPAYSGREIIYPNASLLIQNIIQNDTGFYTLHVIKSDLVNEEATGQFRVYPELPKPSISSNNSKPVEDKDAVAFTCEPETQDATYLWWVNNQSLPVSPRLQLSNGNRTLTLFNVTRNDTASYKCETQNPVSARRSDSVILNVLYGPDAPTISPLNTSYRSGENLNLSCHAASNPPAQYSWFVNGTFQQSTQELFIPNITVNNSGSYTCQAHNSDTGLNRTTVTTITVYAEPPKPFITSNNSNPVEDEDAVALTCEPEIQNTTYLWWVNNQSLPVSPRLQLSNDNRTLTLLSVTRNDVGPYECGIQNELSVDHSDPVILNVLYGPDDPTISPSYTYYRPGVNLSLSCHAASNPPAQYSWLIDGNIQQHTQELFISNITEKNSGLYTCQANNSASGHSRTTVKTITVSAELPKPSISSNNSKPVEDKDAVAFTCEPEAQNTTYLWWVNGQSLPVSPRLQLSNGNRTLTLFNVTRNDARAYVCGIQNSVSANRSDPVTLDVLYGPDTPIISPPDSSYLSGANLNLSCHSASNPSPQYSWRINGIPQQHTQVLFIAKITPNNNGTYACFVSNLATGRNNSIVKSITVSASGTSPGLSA

[2] = target: T2, Recombinant Human CEACAM-5/CD66e Protein (Homo sapiens, UniProt P06731); assay: SPR (Biacore T200) affinity of CEA-V2122 for antigen CEACAM5; format: binding
T2 construct: purchased R & D SYSTEMS
T2 sequence (P06731 35-676): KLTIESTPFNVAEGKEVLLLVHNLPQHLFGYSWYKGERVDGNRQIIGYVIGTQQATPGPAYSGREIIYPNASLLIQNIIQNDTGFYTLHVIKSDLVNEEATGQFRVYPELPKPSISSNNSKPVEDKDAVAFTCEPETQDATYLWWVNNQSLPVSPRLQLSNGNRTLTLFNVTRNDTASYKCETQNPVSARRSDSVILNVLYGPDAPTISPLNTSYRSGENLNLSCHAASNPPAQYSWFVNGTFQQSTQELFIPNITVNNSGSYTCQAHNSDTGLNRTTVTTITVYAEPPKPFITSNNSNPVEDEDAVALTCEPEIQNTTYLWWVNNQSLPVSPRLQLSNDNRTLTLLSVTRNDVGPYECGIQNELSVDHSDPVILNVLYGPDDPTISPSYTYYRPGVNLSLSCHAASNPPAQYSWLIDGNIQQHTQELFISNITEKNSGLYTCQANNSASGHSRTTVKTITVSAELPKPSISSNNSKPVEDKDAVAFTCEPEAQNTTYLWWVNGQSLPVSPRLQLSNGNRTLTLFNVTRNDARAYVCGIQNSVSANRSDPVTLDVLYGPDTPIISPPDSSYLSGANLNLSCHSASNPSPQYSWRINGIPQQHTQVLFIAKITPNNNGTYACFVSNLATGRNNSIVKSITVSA

CEACAM5 = target: T3, CEACAM5 (Homo sapiens, UniProt P06731); assay: cell staining of CEACAM5-expressing cell line using FITC-labeled CEA-V2122; format: cell-based
T3 construct: endogenous in cells; host or cells: MKN-45 (CEACAM5-positive); DLD1 (CEACAM5-negative control)
T3 sequence (P06731 35-676): T2 sequence (P06731 35-676)
Experimental: In order to stain a CEACAM5 expression-positive cancer cell line, FITC labeling was carried out on the cell line, using 100 μg of a purified CEA-V2122 protein. Specifically, labeling was carried out using Fluorescein Labeling Kit—NH2 (DOJINDO LABORATORIES) in accordance with the protocol and amount described in the operating manual included with the kit, and the obtained product was defined to be CEA-V2122-FITC. Specific staining of the CEACAM5 expression-positive cancer cell line is as follows. That is, CEACAM5-positive human stomach cancer-derived MKN-45 cells and CEACAM5-negative human colon cancer-derived DLD1 cells were each seeded on a CELLSTAR, μClear, 96-well plate (Greiner) to a cell density of 2.0×10^4 cells/well, and thereafter, the cells were cultured overnight. Subsequently, a culture solution containing 20 nM CEA-V2122-FITC and 1 μM Hoechist was added to the 96-well plate to a concentration of 100 μL/well, and the obtained mixture was then reacted at 4° C. for 30 minutes. Thereafter, each image was taken using In Cell Analyzer 6000 (GE Healthcare Life Sciences).

[3] = single-cycle kinetics, bivalent analysis mode

- Kd [1]: 1.08 pM
B1: CEA-V2122 (scFv)
chain: QVKLEQSGAEVVKPGASVKLSCKASGFNIKDSYMHWLRQGPGQRLEWIGWIDPENGDTEYAPKFQGKATFTTDTSANTAYLGLSSLRPEDTAVYYCNEGTPTGPYYFDYWGQGTLVTVSSGGGGSGGGGSGGGGSENVLTQSPSSMSVSVGDRVNIACSASSSVPYMHWLQQKPGKSPKLLIYLTSNLASGVPSRFSGSGSGTDYSLTISSVQPEDAATYYCQQRSSYPLTFGGGTKLEIKGGGGSGGGGAEAGITGTWSDQLGDTFIVTAGADGALTGTYENAVGGAESRYVLTGRYDSAPATDGSGTALGWTVAWKNNSKNAHSATTWSGQYVGGADAKINTQWLLTSGTTNANAWKSTLVGHDTFTKVKPSAASHHHHHH
notes: Fusion of an anti-CEACAM5 scFv and mutant streptavidin V2122; also called CEA-Cupid; scFv-V2122

- KD=kd1/ka1 ([2]; bivalent analysis): 1.078E−12
- binding to CEACAM5 (FIG. 5) ([2]; from the KD value in the sensorgram): strongly binds to CEACAM5
- ka1 [2, 3]: 3.208E+5
- kd1 [2, 3]: 3.461E−7
B2: CEA-V2122: scFv-type anti-CEACAM5 antibody bound with mutant streptavidin V2122 via an amino acid linker, SEQ ID NO: 14 (protein)
chain: B1 chain

B3: CEA-V2122-FITC: purified CEA-V2122 protein labeled with Fluorescein Labeling Kit—NH2 (conjugate)
chain: B1 chain
- recognition of CEACAM5 on cells (FIG. 7) (CEACAM5; 20 nM, 4° C. 30 minutes, CEACAM5-positive MKN-45 vs CEACAM5-negative DLD1 cells): specifically recognizes CEACAM5 on the surface of the cell membrane
- localisation of CEACAM5 after binding (FIG. 8) (CEACAM5; time-series images of MKN45 cells): the CEACAM5 stays on the surface of the cell membrane
